Laboratory results published in patent US20150266957A1 (Regeneron, published 2015).
One block for each binder: values may come before it.

Legend:
mouse PROKR1 = molecular target: T1, mouse PROKR1 (mouse (Mus musculus), UniProt Q9JKL1 1-393); assay: flow cytometry, HEK293 cells expressing the target
T1 construct: whole, on cells; Expressed on engineered HEK293 or CHO cells; also called mPROKR1; 293/mPROKR1
Description: (§1) Anti-PROKR antibodies generated in accordance with Example 1 were tested for the ability to bind to human, mouse, and monkey PROKR1 and PROKR2. For these experiments, HEK293 cells were engineered to express: human PROKR1; human PROKR2; mouse PROKR1; mouse PROKR2; cynomolgus monkey PROKR1; or cynomolgus monkey PROKR2. Binding of anti-human PROKR antibodies to the PROKR-expressing cell lines was measured by flow cytometry.
(§2) Adherent cells were collected using 1 mM EDTA in PBS, then washed, and re-suspended in cold PBS containing 5% FBS. For the binding experiments, each anti-PROKR antibody was added to 250,000 cells in 500 μl of PBS with 5% FBS (final antibody concentration of 13 nM). After incubation for 20 minutes at room temperature, the cells were washed with PBS containing 5% FBS. A secondary antibody, recognizing either human (Jackson Immuno Research, #115-135-205) or mouse Fc (BD Pharmigen, #550826) and conjugated to allophycyanin, was then added to the cell mixture at a final concentration of 13.3 nM. After incubating for 20 minutes on ice, the cells were washed and resuspended in PBS containing 5% FBS and then sorted and analyzed on a FACSCalibur (BD Biosciences) flow cytometer to determine relative binding by the candidate antibodies. The cell samples containing secondary antibody alone were used as negative control for FACS gating. Histograms of cells stained with anti-human PROKR antibodies were compared with cells stained with secondary alone. […] ND=not determined.

cynomolgus monkey PROKR1 = molecular target: T2, cynomolgus monkey PROKR1 (cynomolgus monkey (Macaca fascicularis), UniProt G7PMD0 1-393); assay: flow cytometry, HEK293 cells expressing the target
T2 construct: whole, on cells; Expressed on engineered HEK293 cells; also called MfPROKR1; 293/mfPROKR1
Description: as §1, §2

human PROKR2 = molecular target: T3, human PROKR2 (human, UniProt Q8NFJ6 1-384); assay: flow cytometry, HEK293 cells expressing the target, 13 nM antibody
T3 construct: Expressed on engineered HEK293 or CHO cells; also called hPROKR2; prokineticin receptor 2
Description: as §1, §2

mouse PROKR2 [1] = molecular target: T4, mouse PROKR2 (mouse (Mus musculus), UniProt Q8K458 1-381); assay: as above
T4 construct: whole, on cells; Expressed on engineered HEK293 or CHO cells; also called mPROKR2; CHO/mPROKR2
Description: as §1, §2

human PROKR1 = human PROKR1 (human, UniProt Q8TCW9 1-393); assay: cell-based or functional assay
human PROKR2(1-53)-hFc = molecular target: T5, human PROKR2(1-53)-hFc (human); assay: SPR (Biacore 4000), 25 C, antibody captured
T5 construct: also called soluble human PROKR2 (N-terminal portion)
Description: (§3) Kinetic experiments were carried out using HBS-EP (10 mM HEPES, 150 mM NaCl, 3 mM EDTA, 0.05% Surfactant P20, pH 7.4) as both the running buffer and the sample buffer. Antigen-antibody association rates were measured by injecting 2 concentrations (25 and 100 nM) of both human PROKR1 (1-62)-hFc (SEQ ID NO:179) and human PROKR2(1-53)-hFc (SEQ ID NO:180) over the captured antibody surface. Antibody-antigen association was monitored for 90 seconds while dissociation was monitored for 360 seconds. Kinetic on-rate (kₐ) and off-rate (kd) constants were determined from the data using Scrubber software version 2.0 c. Binding dissociation equilibrium constants (KD) and dissociative half-lives (t 1/2) were calculated from the kinetic rate constants as: KD=kd/kₐ and t 1/2=ln(2)/kd.

mouse PROKR2 [2] = molecular target: T4, mouse PROKR2; assay: flow cytometry, HEK293 cells expressing the target
Description: as §1, §2

cynomolgus monkey PROKR2 = molecular target: T6, cynomolgus monkey PROKR2 (cynomolgus monkey (Macaca fascicularis), UniProt A0A7N9CAJ3 1-384); assay: flow cytometry, HEK293 cells expressing the target
T6 construct: whole, on cells; Expressed on engineered HEK293 cells; also called MfPROKR2; 293/mfPROKR2
Description: as §1, §2

human PROKR1 (1-62)-hFc = molecular target: T7, human PROKR1 (1-62)-hFc (human); assay: SPR (Biacore 4000), 25 C, antibody captured, antigen injected at 25 and 100 nM
T7 construct: also called soluble human PROKR1 (N-terminal portion)
Description: as §3

Chain of human PROKR1 (Q8TCW9 whole entry): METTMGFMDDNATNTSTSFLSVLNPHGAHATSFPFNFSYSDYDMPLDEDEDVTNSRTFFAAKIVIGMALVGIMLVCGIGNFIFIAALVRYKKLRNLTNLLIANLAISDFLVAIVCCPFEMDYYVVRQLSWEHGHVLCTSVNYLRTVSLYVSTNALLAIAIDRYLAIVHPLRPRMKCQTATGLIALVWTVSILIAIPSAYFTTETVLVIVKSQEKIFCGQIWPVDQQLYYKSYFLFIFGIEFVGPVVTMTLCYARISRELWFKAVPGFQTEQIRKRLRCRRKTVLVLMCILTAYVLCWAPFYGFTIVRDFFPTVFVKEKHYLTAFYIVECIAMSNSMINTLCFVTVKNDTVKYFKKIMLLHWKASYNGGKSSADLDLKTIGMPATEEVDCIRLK
T7 sequence (chain, as listed by the source limits assumed): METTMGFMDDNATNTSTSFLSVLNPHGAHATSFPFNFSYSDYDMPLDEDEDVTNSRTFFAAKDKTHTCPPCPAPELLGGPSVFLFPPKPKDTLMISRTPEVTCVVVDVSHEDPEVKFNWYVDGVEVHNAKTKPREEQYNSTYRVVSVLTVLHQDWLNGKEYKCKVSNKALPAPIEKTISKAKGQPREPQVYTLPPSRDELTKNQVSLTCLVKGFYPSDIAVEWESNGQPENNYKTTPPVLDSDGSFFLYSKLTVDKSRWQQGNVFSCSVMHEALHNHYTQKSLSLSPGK
T2 sequence (G7PMD0 entry or part of it): as the sequence (Q8TCW9 whole entry) above, with V22A, T31A, S40G, I82V, V135I, K210R, V246F, D348N, V350A counted along it
T4 sequence (Q8K458 whole entry): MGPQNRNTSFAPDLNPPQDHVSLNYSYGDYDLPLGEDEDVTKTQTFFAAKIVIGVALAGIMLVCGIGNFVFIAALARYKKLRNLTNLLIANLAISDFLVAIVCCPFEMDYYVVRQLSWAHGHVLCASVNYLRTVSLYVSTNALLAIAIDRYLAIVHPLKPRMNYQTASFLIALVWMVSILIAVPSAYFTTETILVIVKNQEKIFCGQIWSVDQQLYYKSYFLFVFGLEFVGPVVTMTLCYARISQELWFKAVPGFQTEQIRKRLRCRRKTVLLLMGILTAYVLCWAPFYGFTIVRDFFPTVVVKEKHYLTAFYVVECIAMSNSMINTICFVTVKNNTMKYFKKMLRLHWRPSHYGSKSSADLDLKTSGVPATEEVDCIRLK
T3 sequence (Q8NFJ6 whole entry): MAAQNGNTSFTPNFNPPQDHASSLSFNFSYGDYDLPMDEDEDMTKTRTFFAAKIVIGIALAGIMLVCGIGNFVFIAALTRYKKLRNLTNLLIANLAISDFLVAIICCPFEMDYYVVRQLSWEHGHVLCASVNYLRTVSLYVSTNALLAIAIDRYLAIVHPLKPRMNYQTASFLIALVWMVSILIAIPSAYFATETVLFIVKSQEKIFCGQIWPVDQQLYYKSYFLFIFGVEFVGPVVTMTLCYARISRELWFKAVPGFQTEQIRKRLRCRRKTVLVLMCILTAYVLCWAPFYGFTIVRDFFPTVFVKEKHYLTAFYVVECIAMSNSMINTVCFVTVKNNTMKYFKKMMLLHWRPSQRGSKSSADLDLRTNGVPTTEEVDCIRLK
T1 sequence (Q9JKL1 whole entry): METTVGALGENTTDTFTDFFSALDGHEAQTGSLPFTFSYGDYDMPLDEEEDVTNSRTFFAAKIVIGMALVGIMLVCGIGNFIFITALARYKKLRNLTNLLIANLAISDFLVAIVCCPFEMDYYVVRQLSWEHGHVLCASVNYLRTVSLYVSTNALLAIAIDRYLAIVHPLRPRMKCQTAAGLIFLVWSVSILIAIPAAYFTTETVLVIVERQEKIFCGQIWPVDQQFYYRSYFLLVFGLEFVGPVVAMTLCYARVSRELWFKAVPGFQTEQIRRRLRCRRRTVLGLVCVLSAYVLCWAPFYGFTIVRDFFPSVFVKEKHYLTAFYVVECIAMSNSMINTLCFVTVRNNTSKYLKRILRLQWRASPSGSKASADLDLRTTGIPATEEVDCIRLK
T6 sequence (A0A7N9CAJ3 entry or part of it): as the sequence (Q8NFJ6 whole entry) above, with T11A, R357W, D364E, T374A counted along it

binding result (mouse PROKR1): no binding
binding result (cynomolgus monkey PROKR1): no binding
binding result (human PROKR2): binds
binding result (mouse PROKR2 [1]): binds
B1: H2M6385N (antibody, V domains shown)
VH: EVQVVESGGGLVKPGGSLRLSCAASGFTFSNVWMTWVRQAPGKGLEWVGRIKSKIEGGTTDYAASVKGRFTISRDDSKNTQSLQMNSLKSEDTAVYYCSTGHLAYWGQGTLVIVSS
VL: DIVMTQTPLSSPVSLGQPASISCRSSQSLVHSDGSTYLSWLQQRPGQPPRLLIYKISNRFSGVPDRFSGSGAGTDFTLKISRVEAEDVGIYYCMQATQFPTFGQGTKVEIK
notes: the prefix H2M is not spelled out

Block (%), calcium flux, hPROKR1 + PK1 (20 nM hPK1) (human PROKR1): 92%
IC50 (nM), inhibition of calcium flux, hPROKR1 + PK1 (20 nM hPK1) (human PROKR1): 14.9 nM
IC50 (nM), inhibition of calcium flux, hPROKR1 + PK2 (20 nM hPK2) (human PROKR1): 16.2 nM
binding result (mouse PROKR1): no binding
binding result (mouse PROKR2 [2]): no binding
binding result (cynomolgus monkey PROKR1): no binding
binding result (cynomolgus monkey PROKR2): no binding
binding result (human PROKR2): binds
Kd (human PROKR1 (1-62)-hFc): 4.85 nM
koff (human PROKR1 (1-62)-hFc): 0.00103 s⁻¹
kon (human PROKR1 (1-62)-hFc): 212000 M⁻¹ s⁻¹
t½ (human PROKR1 (1-62)-hFc): 11 min
B2: H1M6386N (antibody, mouse IgG1, V domains shown)
VH: NVQLVESGGGLVKPGGSLRLSCVASGFTFANAWMTWVRQAPGKGLEWVGRIKSKTDGGTTDHAAPVKGRFIVSRDDSKSTLYLQMNSLKTEDTAVYYCTNYAFQLWGQGTLVTVSS
VL: DIVMTQTPLSSLVTLGQSASISCRSSQGLVHSDGNTYLSWLHQRPGQPPRLLIYKISNRFSGVPDRFTGSGAGTDFTLKISRVEAEDVGVYYCMQSTQFPRTFGQGTKVEIK
notes: Chimeric: human variable domains, mouse constant domains
binding result (human PROKR2(1-53)-hFc): no binding (tested: 25 and 100 nM antigen injected)
